Source: patent publication US9187553

Biological target: recombinant human FceRIa D2/D1 subunit (human) (UniProt P12319)
Assay: ELISA, IgE captured by His-tagged receptor on Ni-treated plate

Chain of UniProt P12319 (P12319 26-205): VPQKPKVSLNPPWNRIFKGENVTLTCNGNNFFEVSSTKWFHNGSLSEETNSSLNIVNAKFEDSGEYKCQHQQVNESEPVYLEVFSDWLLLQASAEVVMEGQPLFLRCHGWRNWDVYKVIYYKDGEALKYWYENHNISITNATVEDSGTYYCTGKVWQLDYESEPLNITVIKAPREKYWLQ

Q: How did the OD signal at 50 ng/ml turn out when human myeloma IgE (BED) (antibody) was run?
A: Its OD signal at 50 ng/ml is 1.2 OD.
